The numbers were not newly measured in paper PMC3711752, which cites them from elsewhere.

The term Kd denotes the constant that tells how readily two partners part at equilibrium.

This series deals with EGF receptor (Homo sapiens) (UniProt P00533).

EGF, sequence (P01133 971-1023): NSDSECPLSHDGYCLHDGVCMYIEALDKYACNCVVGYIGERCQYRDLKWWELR

As to EGF (from UniProt P01133), the equilibrium dissociation constant (Kd) was 3 nM.
